Laboratory results reported in US20220380801A1, “TRIPARTITE SYSTEMS FOR PROTEIN DIMERIZATION AND METHODS OF USE” (priority 2019, published 2022).
Where “and” joins values, the source holds several entries; their conditions need not be identical. Identical values can stand only once. Like-named read-outs stand apart in the source and are kept apart here.

Key:
[1] = test system: luciferase reporter gene in HEK293 cells; assay: Transcriptional regulation assay (split transcription factor), luciferase reporter; format: cell-based, human; conditions: for EC50: read-out: EC50; for fold increase in luciferase expression: direct comparison of DBD-PRSIM constructs with FRB:FKBP12:rapalog positive control; for max fold change: firefly luciferase
Description: The iDimerize regulated transcription system (Takara) was used to test the ability of PRSIM-based CIDs to regulate gene expression. […] The DBD and AD are separately fused to the two protein components of a CID such that, only in the presence of the small molecule inducer, the AD is brought into close proximity to the DBD, recruiting the transcription machinery to a promoter harbouring the DBD recognition sites. The iDimerize regulated transcription system (Takara) provides two vectors, pHet-Act1-2 and pZFHD1-Luciferase. The pHet-Act1-2 vector encodes two fusion proteins that represent a positive control: one is a fusion between FRB (T82L mutant; DmrC) and an activation domain (AD) from human p65 (SEQ ID NO: 42); the other is a fusion protein comprised of a DNA binding domain (ZFHD1) (SEQ ID NO: 43) fused to three tandem copies of FKBP12 (DmrA). These sequences are preceded by a CMV promoter and separated by an internal ribosome entry site (IRES). The ZFHD1 vector encodes luciferase preceded by an inducible promoter consisting of 12 copies of the recognition sequence of the ZFHD1 DBD upstream of a minimal IL-2 promoter. Binding of the DBD to its recognition sequence and recruitment of the transcriptional machinery by the AD initiates transcription of the luciferase reporter gene. The DNA sequence encoding HCV NS3/4A PR (S139A) was purchased as a DNA string from GeneArt and cloned into the pHet-Act1-2 vector as either an N-terminal fusion partner to the activation domain (SEQ ID NO: 44) (replacing FRB) or as a C-terminal fusion partner to the DNA binding domain (SEQ ID NO: 45) (replacing FKBP12) with flexible linkers (TGGGGSGGGGS (SEQ ID NO: 185) and SA, respectively) between the fusion partners. Subsequently, sequences encoding one copy of a panel of 12 PRSIM molecules (Table 2) were purchased as DNA strings from GeneArt and were cloned using Gibson assembly into the HCV NS3/4A PR (S139A)-containing pHetAct1-2 constructs described above, as a fusion partner to either the DBD (SEQ ID NOS: 46-56) or AD (SEQ ID NOS: 57-67), respectively. An equivalent construct was generated to replace the three copies of FKBP12 in pHet-Act1-2 with a single copy of FKBP12. The sequence of the constructs encoding both activation domain and DNA-binding domain fusion proteins was confirmed by Sanger sequencing of the entire coding region.
Sequences encoding the three HCV NS3/4A PR (S139A) mutants (Table 6) were purchased as DNA strings from GeneArt and were cloned using Gibson assembly into the pHetAct1-2 HCV NS3/4A PR (S139A)-PRSIM_23 (3 tandem copy) construct described above as a fusion partner to the AD (SEQ ID NOs: 211-216).
All transcriptional regulation assays were performed in adherent HEK293 cells cultured in 384-well plates. Cells enzymatically dissociated from a tissue culture flask were counted and plated at 7.5×10^3 cells/well in a 384-well plate. The plates were incubated overnight at 37° C. with 5% CO2 to allow the cells to adhere. On day 2, the cells were co-transfected with a pHet-Act1-2 plasmid (containing the FRB:FKBP12 control fusion proteins (Clontech) or the HCV NS3/4A PR (S139A):PRSIM fusion proteins) and a pZFHD1 plasmid (encoding either luciferase (Clontech) or NanoLuc-PEST (as described above)) using Lipofectamine LTX (ThermoFisher). On day 3, wells were treated with different concentrations of either A/C heterodimeriser (for the FRB:FKBP12 control), simeprevir or with vehicle control, and 24 hours later luminescence was quantified with an Envision plate reader immediately following addition of SteadyGlo luciferase substrate (Promega) or Nano-Glo Vivazine luciferase substrate (Promega). Alternatively, reverse transfections were carried out on Day 1, addition of dimeriser on Day 2 and luminescence quantified 24 hours later on Day 3.
Luminescence readings were converted into fold-change by dividing the signal in the presence of simeprevir by that in the absence of simeprevir.

BSA = BSA (Bos taurus, UniProt P02769); assay: Biacore 8K BSA control; format: binding; set-up: key: # = no binding; * = minimal non-specific binding; conditions: 10 nM simeprevir present
Procedure: (§1) The HCV NS3/4A PR (S139A), or BSA control, was diluted 1:4 (1.25-20 nM)±10 nM simeprevir in 10 mM Hepes pH 7.4, 150 mM NaCl, 0.05% Surfactant P20, 0.01% DMSO, ensuring constant simeprevir and DMSO concentration. The samples were flowed over the chip at 50 μl/min using single cycle kinetics, with 120 sec association and 600 sec dissociation. The chip surface was regenerated with two 20 sec pulses of 10 mM Glycine-HCl pH 3.0. The final sensorgrams were analysed using the Biacore 8K Evaluation Software and the affinity constant KD was determined using a 1:1 binding model. The same method was used for measuring the affinity of the HCV NS3/4A PR mutants for PRSIM_23 with minor deviations. The mutants were diluted 1:4 (2.5-40 nM)±simeprevir in 10 mM Hepes pH 7.4, 150 mM NaCl, 0.05% Surfactant P20, 0.08% DMSO, ensuring constant simeprevir and DMSO concentration. The samples were flowed over the chip at 50 μl/min using single cycle kinetics, with 180 sec association and 600 sec dissociation.

HCV NS3/4A PR (S139A) = HCV NS3/4A PR (S139A) (Hepatitis C virus subtype 1a, UniProt A8DG50, A1066T/I1043Q/I1044E/L1039E/L1040E/L1047Q/S1165A, form not given); assay: Biacore 8K binding kinetics of PRSIM binding molecules
Procedure: The scFv and Tn3 PRSIM binding molecules were covalently immobilised to a CM5 chip surface using standard amine coupling techniques at a concentration of 1 μg/ml in 10 mM sodium acetate pH 4.5.
as §1

[2] = PRSIM fused to AD, one copy, simeprevir dose-response
[3] = PRSIM fused to DBD, one copy, simeprevir dose-response

Molecule | Max fold change ([1]; PRSIM fused to AD, one copy) | EC50 [1, 2] | Max fold change ([1]; PRSIM fused to DBD, one copy) | EC50 [1, 3] | BSA control (BSA) | Kd (HCV NS3/4A PR (S139A); 10 nM simeprevir present) | Rmax (HCV NS3/4A PR (S139A); 10 nM simeprevir present) | ka (HCV NS3/4A PR (S139A); 10 nM simeprevir present) | kd (HCV NS3/4A PR (S139A); 10 nM simeprevir present) | fold increase in luciferase expression [1] | max fold change ([1]; one copy of PRSIM_23 fused to DBD) | max fold change ([1]; three tandem PRSIM_23 fused to DBD) | max fold change ([1]; two tandem PRSIM_23 fused to DBD) | EC50 ([1]; fusion orientation not stated) | Kd (HCV NS3/4A PR (S139A); ‘WT’ (S139A), 20 nM simeprevir) | Rmax (HCV NS3/4A PR (S139A); ‘WT’ (S139A), 20 nM simeprevir) | ka (HCV NS3/4A PR (S139A); ‘WT’ (S139A), 20 nM simeprevir) | kd (HCV NS3/4A PR (S139A); ‘WT’ (S139A), 20 nM simeprevir)
PRSIM_04: scFv PRSIM binding molecule, SEQ ID NO: 11 (protein, PRSIM_04) scFv: QVQLVQSGAEVKKPGSSVKVSCKASGGTFSSYAISWVRQAPGQGLEWMGGIIPIFGTANYAQKFQGRVTITADESTSTAYMELSSLRSEDTAVYYCARGMAHFYQFDLWGQGTLVTVSSGGGGSGGGGSGGGGSAQSVLTQPPSASGTPGQRVTISCSGSSSNIGSNTVNWYQQLPGTAPKLLIYSNNQRPSGVPDRFSGSKSGTSASLAISGLQSEDEADYYCAAGDHDHEHVVFGGGTKLTVL | 6.9 | 159000 nM | 1.364 | 6.55 nM | # | 11.2 nM | 65.9 RUs | 1.74e+07 M⁻¹ s⁻¹ | 0.195 s⁻¹ |  |  |  |  |  |  |  |  | 
PRSIM_72: scFv PRSIM binding molecule, SEQ ID NO: 14 (protein, PRSIM_72) scFv: QVQLVQSGAEVKKPGSSVKVSCKASGGTFSSYAISWVRQAPGQGLEWMGGIIPIFGTANYAQKFQGRVTITADESTSTAYMELSSLRSEDTAVYYCARGMAHFYQFDLWGQGTLVTVSSGGGGSGGGGSGGGGSAQSVLTQPPSASGTPGQRVTISCSGSSSNIGSNTVNWYQQLPGTAPKLLIYSNNQRPSGVPDRFSGSKSGTSASLAISGLQSEDEADYYCAAGDHDHEHVVFGGGTKLTVL | 2.2 | 4.84 nM | 1.4 | 33 nM | # | 1 nM | 33.4 RUs | 1.18e+06 M⁻¹ s⁻¹ | 0.00118 s⁻¹ |  |  |  |  |  |  |  |  | 
PRSIM_23: Tn3 protein specific for HCV NS3/4A PR (S139A):simeprevir complex, SEQ ID NO: 5 (protein, PRSIM_23) RLDAPSQIEVKDVTDTTALITWVDPRYDDIWWFELTYGIKDVPGDRTTIKLYLNDPYYSIGNLKPDTEYEVSLISYTGDSYSRSGSNPAKITFKTGL | 106 and 106.67 | 2.82 nM | 88 and 88.8 | 2.47 nM | # | 6.3 nM | 284 RUs | 5.03e+06 M⁻¹ s⁻¹ | 0.0318 s⁻¹ | 100 fold | 364.5 | 4862 fold | 2436 | 2 nM | 5.4 nM | 215 RUs | 5.59e+09 M⁻¹ s⁻¹ | 31 s⁻¹
PRSIM_57: scFv specific for HCV NS3/4A PR (S139A):simeprevir complex, SEQ ID NO: 12 (protein, PRSIM_57) scFv: QVQLVQSGAEVKKPGSSVKVSCKASGGTFSSYAISWVRQAPGQGLEWMGGIIPIFGTANYAQKFQGRVTITADESTSTAYMELSSLRSEDTAVYYCARHTNYITVFDYWGQGTLVTVSSGGGGSGGGGSGGGGSAQSVLTQPPSASGTPGQRVTISCSGSSSNIGSNTVNWYQQLPGTAPKLLIYSNNQRPSGVPDRFSGSKSGTSASLAISGLQSEDEADYYCAAWDHHWEQVVFGGGTKLTVL | 10.73 | 3.21 nM | 146 and 146.6 | 3.54 nM | # | 15 nM | 69.1 RUs | 1.73e+07 M⁻¹ s⁻¹ | 0.26 s⁻¹ | 100 fold |  |  |  |  |  |  |  | 
PRSIM_67: scFv PRSIM binding molecule, SEQ ID NO: 13 (protein, PRSIM_67) scFv: EVQLVQSGAEVKKPGAAVRISCKTSGYVFTSYYVHWVRQAPGQGLEWMGVINPSGGNTNYAQKFQDRVTMTRDTSTTTVYMELSSLMFDDTAVYYCAKRDYGGPLANWGRGTLVTVSSGGGGSGGGGSGGGGSALSYELTQPPSVSEAPRQRVTISCSGSSSNIGNNAVNWYQQLPGKAPKLLIFYDDLLPSGVSDRFSGSKSGTSASLAISGLQSEDEADYYCAAWDDSLNGLVFGTGTKLTVL | 87.1 | 4.97 nM | 1 | 2.05 nM | # | 11.5 nM | 19.3 RUs | 1.97e+07 M⁻¹ s⁻¹ | 0.226 s⁻¹ |  |  |  |  |  |  |  |  | 
PRSIM_33: Tn3 PRSIM binding molecule, SEQ ID NO: 7 (protein, PRSIM_33) RLDAPSQIEVKDVTDTTALITWYPPGRWYDDIWYFELTYGIKDVPGDRTTIKLARGDDVYSIGNLKPDTEYEVSLISWGPDRGDRAGSNPAKITFKTGL | 2.9 | 82.4 nM | 33.14 | 12.8 nM | # |  | 171.9 RUs | 3.65e+06 M⁻¹ s⁻¹ | 0.0303 s⁻¹ |  |  |  |  |  |  |  |  | 
PRSIM_75: scFv PRSIM binding molecule, SEQ ID NO: 15 (protein, PRSIM_75) scFv: EVQLVQSGAEVKKPGSSVKVSCKASGGSFNSYTLDWVRQAPGQGLEWMGGIIPVFGSPNYGQKFQGRVTITADESTSTAYMELSSLKSDDTAVYYCARGLVYQPLDSWGRGTLVTVSSGGGGSGGGGSGGGGSAQAVLTQPSSASGTPGQRVTISCSGSSSNIGSYTVNWYQQFPGTAPKLLIYSNTQRPSGVPDRFSGSKSGTSASLAISGLQSEDEADYYCAAWDDSLNGWVFGGGTKVTVL | 40.67 | 2.17 nM | 9.4 | 2.67 nM | # | 0.3 nM | 88.8 RUs | 9.09e+06 M⁻¹ s⁻¹ | 0.00267 s⁻¹ |  |  |  |  |  |  |  |  | 
